In patent publication US20040048243A1, “Methods and compositions for in vitro targeting” (priority 2003, published 2004):
No end group written: not given here.

Columns and labels:
KS1767 cells = test: Inhibition of HWGF-β-gal phage transduction by synthetic peptides; format: cell-based, human; conditions: target cells pre-incubated with synthetic peptide; dose-dependent
Procedure: (§1) In the peptide inhibition experiments, MDA-MB435 cells were cultured on 12-well plates and then incubated with 10 μg of RGD-4C peptide (SEQ ID NO: 166) or control peptides (CARAC, SEQ ID NO: 169 or CKDRFERC, SEQ ID. NO: 59) in normal growth media for 30 minutes. KS1767 cells were grown on 12-well plates and then incubated with 40 μg CTTHWGFTLC (SEQ D NO: 167) or control peptides in normal growth media for 30 minutes. After this the growth media were replaced by 500 μl of MEM containing 2% FCS and 5×10^10 transducing units (TU) of either RGD-4C-β-gal, HWGF-β-gal, or control fd-β-gal phage. Phage vectors were incubated on peptide-treated cells (three hours at 37° C., 5% CO2) followed by a media change to MEM plus 10% FCS. Transduced cells were then maintained in a cell incubator for 72 hours (37° C., 5% CO2).
(§2) In the peptide inhibition assays, β-gal activity in cell lysates was detected by the Galacto-Star® chemiluminescent reporter gene system (Tropix, Bedford, Mass.) according to the manufacturer's protocol. […] Cells were analyzed for GFP gene expression at 72 hours post infection. For GFP detection, cells were analyzed by fluorescence activated cell sorting (FACS) in a FACScan (Becton-Dickinson, San Jose, Calif.) or counted and photographed under a fluorescence microscope (Nikon).

MDA-MB435 cells = test: Inhibition of RGD-4C-β-gal phage transduction by synthetic peptides; format: cell-based, human; conditions: target cells pre-incubated with synthetic peptide; dose-dependent
Procedure: as §1, §2

[1] = system: tumor-associated antigens in tissue sections from bone marrow metastasis; test: Immunohistological staining with antibodies against peptide C; format: binding, human; conditions: antibodies pre-incubated with GST-peptide C
Procedure: GST-fusion proteins containing the peptide sequence from patient C were coated on multi-well plates. After incubating the plates with the patient's serum, the plates were washed. The bound IgG antibodies were eluted with 50 μl of 0.1 M glycine buffer, pH 2.2, neutralized by addition of 10 μl 1 M Tris pH 9.0, and dialyzed in PBS overnight followed by concentration of the antibody using Centricon-30 (Millipore) filters. The purified antibody (500 μg) was coupled to biotin according to the manufacturer's instructions (Vector). The biotinylated antibody was analyzed by SDS-gel electrophoresis.
Paraffin sections from patient C were stained with purified biotinylated antibodies and peptide antibodies by immunoperoxidase detection using the Dako antigen retrieval kit and DAB as a substrate. All of the sections (4 μm) were counter-stained with hematoxylin. The biotinylated immunopurified antibodies were used at a dilution of 1:100. Peptide C antibodies and purified pre-immune antibodies were used at 0.01 μg/μl. For the inhibition staining, peptide C antibodies were pre-incubated for 30 minutes at room temperature with the GST-peptide C (500μg) prior to staining. Peptide antibodies were generated in rabbits and purified using a T-gel immunoglobulin purification kit and protein G column (Pierce).

CD13 = biological target: T1, CD13 (Sus scrofa, UniProt P15145); test: Peptide competition of angiostatin binding to CD13; conditions: up to 500 μg of peptide; not shown
T1 construct: purchased Sigma, St Louis, Mo; L-9776
T1 sequence (P15145 2-963 limits assumed): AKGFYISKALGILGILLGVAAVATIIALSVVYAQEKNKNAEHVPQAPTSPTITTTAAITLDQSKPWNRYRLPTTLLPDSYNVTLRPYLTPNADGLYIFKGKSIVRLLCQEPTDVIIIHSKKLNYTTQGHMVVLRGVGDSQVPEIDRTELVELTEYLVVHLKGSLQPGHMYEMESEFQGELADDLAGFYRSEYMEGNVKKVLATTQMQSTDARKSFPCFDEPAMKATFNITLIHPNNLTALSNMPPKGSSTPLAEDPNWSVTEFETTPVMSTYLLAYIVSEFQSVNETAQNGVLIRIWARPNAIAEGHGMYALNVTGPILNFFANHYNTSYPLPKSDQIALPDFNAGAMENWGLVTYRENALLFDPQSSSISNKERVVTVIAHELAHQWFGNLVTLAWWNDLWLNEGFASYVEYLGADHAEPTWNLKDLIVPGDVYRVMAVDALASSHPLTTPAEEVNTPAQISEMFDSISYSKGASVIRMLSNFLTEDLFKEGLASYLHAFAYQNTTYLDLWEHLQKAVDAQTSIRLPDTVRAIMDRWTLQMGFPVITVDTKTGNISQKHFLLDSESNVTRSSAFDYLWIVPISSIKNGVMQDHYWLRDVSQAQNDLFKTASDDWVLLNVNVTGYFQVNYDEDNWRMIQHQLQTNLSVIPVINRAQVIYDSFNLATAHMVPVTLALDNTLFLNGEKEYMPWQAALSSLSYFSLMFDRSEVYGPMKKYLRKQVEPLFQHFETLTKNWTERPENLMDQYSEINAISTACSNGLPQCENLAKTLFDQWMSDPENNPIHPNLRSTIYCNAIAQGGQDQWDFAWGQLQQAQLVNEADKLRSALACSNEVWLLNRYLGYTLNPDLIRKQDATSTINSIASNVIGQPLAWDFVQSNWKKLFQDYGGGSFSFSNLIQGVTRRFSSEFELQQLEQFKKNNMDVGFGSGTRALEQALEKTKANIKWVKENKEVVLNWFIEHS
Procedure: (§3) To assess protein-protein interactions, 100 ng/well of protein was coated in triplicate in 96-well plates. The plates were dried at 37° C., blocked with PBS and 3% BSA, and incubated with 10 μg/ml of rhAngiostatin in PBS+1% BSA for three hours at RT. The wells were washed three times with PBS, 3% BSA, 0.01% Tween 20 before incubation with anti-rhAngiostatin antibody (R&D Systems, Inc #AF226) at 1 μg/ml for 1 hour at RT. The wells were then washed three times with PBS, 3% BSA, 0.01% Tween 20 and incubated with […] anti-goat antibody. After washing 3 times with PBS, 0.01% Tween 20 and once with PBS, the wells were developed with p-nitrophenyl phosphate. Binding of alkaline phosphate conjugate was detected colorimetrically at […]. using an ELISA microplate reader.
Binding of angiostatin to CD13 was competitive with the NGR peptide (Burg et al., 1999) in a dose-dependent manner (not shown). Control experiments were run with the CARAC peptide (SEQ ID NO: 169) (not shown). Binding of angiostatin to CD13 was inhibited by more than 50% by 0.5 μg of NGR peptide, while binding was unaffected by up to 500 μg of CARAC peptide (SEQ ID NO: 169) (not shown).

COL IV (collagen IV) = test: Protein-protein interaction ELISA: rhAngiostatin binding to coated protein
Procedure: as §3

[2] = biological target: T2, HGF (hepatocyte growth factor) (Homo sapiens, UniProt P14210); test: as above
T2 construct: purchased Calbiochem, San Diego, Calif; 375228
Procedure: as §3

FN (fibronectin) = FN (fibronectin) (Homo sapiens, UniProt P02751); test: as above
Procedure: as §3

VN (vitronectin) = biological target: T3, VN (vitronectin) (Homo sapiens, UniProt P04004); test: as above
T3 sequence (P04004 20-478): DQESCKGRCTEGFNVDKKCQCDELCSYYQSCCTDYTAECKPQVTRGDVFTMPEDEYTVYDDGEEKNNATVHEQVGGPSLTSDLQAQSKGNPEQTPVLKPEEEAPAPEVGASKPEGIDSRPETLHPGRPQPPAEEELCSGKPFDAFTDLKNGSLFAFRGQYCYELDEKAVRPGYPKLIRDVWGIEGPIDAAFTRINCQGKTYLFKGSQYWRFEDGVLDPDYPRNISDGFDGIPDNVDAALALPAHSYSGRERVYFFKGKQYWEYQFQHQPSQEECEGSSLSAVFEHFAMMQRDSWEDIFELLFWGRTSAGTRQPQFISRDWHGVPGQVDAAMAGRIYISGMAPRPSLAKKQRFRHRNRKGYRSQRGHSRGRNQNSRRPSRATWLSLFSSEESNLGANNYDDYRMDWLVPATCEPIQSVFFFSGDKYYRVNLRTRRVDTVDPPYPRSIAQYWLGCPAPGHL
Procedure: as §3

CD13 (Aminopeptidase N) = biological target: T4, CD13 (Aminopeptidase N) (Sus scrofa, UniProt P15145); test: as above
T4 construct: purchased Sigma, St Louis, Mo; L-9776
T4 sequence (P15145 1-963): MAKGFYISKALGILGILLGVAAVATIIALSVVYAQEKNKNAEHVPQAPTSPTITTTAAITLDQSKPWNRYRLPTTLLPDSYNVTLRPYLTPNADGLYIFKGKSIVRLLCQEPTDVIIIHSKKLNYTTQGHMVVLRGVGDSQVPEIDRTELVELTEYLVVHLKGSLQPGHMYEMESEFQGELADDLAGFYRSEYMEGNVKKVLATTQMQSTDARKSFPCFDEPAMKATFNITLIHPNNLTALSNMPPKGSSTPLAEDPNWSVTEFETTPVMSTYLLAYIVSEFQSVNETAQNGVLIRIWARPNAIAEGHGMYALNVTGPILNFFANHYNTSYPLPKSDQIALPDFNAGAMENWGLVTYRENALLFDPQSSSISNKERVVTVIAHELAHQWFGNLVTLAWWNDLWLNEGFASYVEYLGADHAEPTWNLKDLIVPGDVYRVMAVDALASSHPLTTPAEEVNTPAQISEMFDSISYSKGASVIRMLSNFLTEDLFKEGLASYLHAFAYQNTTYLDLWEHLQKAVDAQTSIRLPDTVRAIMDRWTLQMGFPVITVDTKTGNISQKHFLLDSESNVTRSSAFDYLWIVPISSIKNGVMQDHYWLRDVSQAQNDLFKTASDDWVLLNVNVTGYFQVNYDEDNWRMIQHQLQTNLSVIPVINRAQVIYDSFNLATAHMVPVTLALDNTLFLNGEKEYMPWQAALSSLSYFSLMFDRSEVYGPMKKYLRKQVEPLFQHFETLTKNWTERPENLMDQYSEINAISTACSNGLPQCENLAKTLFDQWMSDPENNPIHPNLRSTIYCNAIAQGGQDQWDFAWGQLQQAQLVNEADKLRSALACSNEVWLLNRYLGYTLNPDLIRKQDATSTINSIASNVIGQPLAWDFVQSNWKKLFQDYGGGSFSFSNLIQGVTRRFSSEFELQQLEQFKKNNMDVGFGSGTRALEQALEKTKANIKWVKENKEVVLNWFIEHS
Procedure: as §3

Thrombospondin 1 (TSP-1) = biological target: T5, Thrombospondin 1 (TSP-1) (Homo sapiens, UniProt P07996); test: as above; conditions: TSP-1, positive control
T5 construct: purchased Calbiochem, San Diego, Calif; 605225
Procedure: as §3

LN (laminin) = test: as above
Procedure: as §3

[3] = system: angiostatin receptor in tissue sections; test: Angiostatin staining of tissue sections of metastatic human bone marrow; format: binding; conditions: 100 μg/ml rh-angiostatin, anti-angiostatin antibody detection
Procedure: Angiostatin was incubated with tissue sections of metastitic human bone marrow. After washing, the tissue sections were developed with an anti-angiostatin Ab, followed by the corresponding secondary Ab conjugated to peroxidase. […] The staining was specific since only this structure and not other cells were stained.
Anti-human Angiostatin were purchased (R&D Systems: AF226). rhAngiostatin was produced by EntreMed, Inc. (Rockville, Md.). Surgical specimens of human metastases (Bouin-fixed 4-6 h, paraffin-embedded sections, 5-6 μm thick) were adsorbed on polylysine-coated slides. Tissue slides were incubated with 100 μg/ml of rh-angiostatin. The slides were washed 3 times and incubated with anti-angiostatin antibody. The slides were washed again 3 times and bound antibodies were detected using an anti-goat peroxidase-conjugate antibody.

bovine serum albumin = biological target: T6, bovine serum albumin (bovine, UniProt P02769 25-607); test: phage binding assay (FIG. 22)
T6 construct: control protein coated on wells; also called BSA
T6 sequence (P02769 25-607 limits assumed): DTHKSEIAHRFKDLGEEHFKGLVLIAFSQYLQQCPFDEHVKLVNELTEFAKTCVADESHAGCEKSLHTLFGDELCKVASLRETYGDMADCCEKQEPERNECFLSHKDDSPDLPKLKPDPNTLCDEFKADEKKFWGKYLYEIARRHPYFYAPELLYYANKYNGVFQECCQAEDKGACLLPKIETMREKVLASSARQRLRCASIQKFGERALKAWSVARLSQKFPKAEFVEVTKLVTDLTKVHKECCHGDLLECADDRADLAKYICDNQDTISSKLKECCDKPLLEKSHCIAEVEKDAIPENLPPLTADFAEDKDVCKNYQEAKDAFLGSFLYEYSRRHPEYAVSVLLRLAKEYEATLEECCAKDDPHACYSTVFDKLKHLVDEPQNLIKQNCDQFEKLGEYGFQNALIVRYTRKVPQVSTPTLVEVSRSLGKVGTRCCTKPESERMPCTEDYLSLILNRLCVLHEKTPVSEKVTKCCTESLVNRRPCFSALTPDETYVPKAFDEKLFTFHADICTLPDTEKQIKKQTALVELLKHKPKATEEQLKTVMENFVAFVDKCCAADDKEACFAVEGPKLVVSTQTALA

T5 sequence (P07996 19-1170): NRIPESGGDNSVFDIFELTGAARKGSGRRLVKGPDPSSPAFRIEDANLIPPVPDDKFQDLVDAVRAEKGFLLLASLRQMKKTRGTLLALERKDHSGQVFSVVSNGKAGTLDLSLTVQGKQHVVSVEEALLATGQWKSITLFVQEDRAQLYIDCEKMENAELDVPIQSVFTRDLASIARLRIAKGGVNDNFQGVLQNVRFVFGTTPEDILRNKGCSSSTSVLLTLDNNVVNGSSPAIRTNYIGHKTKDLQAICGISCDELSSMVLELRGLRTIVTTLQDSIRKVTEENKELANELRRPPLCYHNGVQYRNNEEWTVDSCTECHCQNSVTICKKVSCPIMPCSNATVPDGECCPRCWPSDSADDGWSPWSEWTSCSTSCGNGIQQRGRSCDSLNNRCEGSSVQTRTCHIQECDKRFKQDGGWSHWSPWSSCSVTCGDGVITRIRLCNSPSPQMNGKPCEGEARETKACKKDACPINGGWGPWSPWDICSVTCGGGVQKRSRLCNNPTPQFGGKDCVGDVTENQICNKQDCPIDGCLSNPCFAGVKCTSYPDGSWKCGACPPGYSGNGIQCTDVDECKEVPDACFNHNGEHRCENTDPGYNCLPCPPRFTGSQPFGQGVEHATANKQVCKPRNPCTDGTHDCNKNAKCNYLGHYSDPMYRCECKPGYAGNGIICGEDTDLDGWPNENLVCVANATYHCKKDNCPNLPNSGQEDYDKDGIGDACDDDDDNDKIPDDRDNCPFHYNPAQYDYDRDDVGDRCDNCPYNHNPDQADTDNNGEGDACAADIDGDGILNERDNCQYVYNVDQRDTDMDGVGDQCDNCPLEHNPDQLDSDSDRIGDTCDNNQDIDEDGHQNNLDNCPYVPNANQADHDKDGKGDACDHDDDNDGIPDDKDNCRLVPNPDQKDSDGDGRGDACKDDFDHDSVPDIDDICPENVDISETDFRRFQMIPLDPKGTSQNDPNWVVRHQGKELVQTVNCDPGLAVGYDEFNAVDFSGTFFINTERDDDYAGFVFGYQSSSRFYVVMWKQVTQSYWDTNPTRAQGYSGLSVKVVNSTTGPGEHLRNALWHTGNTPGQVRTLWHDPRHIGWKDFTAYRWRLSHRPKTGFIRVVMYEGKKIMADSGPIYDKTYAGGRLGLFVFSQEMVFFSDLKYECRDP
Chain of FN (fibronectin) (P02751 32-2477, species assumed): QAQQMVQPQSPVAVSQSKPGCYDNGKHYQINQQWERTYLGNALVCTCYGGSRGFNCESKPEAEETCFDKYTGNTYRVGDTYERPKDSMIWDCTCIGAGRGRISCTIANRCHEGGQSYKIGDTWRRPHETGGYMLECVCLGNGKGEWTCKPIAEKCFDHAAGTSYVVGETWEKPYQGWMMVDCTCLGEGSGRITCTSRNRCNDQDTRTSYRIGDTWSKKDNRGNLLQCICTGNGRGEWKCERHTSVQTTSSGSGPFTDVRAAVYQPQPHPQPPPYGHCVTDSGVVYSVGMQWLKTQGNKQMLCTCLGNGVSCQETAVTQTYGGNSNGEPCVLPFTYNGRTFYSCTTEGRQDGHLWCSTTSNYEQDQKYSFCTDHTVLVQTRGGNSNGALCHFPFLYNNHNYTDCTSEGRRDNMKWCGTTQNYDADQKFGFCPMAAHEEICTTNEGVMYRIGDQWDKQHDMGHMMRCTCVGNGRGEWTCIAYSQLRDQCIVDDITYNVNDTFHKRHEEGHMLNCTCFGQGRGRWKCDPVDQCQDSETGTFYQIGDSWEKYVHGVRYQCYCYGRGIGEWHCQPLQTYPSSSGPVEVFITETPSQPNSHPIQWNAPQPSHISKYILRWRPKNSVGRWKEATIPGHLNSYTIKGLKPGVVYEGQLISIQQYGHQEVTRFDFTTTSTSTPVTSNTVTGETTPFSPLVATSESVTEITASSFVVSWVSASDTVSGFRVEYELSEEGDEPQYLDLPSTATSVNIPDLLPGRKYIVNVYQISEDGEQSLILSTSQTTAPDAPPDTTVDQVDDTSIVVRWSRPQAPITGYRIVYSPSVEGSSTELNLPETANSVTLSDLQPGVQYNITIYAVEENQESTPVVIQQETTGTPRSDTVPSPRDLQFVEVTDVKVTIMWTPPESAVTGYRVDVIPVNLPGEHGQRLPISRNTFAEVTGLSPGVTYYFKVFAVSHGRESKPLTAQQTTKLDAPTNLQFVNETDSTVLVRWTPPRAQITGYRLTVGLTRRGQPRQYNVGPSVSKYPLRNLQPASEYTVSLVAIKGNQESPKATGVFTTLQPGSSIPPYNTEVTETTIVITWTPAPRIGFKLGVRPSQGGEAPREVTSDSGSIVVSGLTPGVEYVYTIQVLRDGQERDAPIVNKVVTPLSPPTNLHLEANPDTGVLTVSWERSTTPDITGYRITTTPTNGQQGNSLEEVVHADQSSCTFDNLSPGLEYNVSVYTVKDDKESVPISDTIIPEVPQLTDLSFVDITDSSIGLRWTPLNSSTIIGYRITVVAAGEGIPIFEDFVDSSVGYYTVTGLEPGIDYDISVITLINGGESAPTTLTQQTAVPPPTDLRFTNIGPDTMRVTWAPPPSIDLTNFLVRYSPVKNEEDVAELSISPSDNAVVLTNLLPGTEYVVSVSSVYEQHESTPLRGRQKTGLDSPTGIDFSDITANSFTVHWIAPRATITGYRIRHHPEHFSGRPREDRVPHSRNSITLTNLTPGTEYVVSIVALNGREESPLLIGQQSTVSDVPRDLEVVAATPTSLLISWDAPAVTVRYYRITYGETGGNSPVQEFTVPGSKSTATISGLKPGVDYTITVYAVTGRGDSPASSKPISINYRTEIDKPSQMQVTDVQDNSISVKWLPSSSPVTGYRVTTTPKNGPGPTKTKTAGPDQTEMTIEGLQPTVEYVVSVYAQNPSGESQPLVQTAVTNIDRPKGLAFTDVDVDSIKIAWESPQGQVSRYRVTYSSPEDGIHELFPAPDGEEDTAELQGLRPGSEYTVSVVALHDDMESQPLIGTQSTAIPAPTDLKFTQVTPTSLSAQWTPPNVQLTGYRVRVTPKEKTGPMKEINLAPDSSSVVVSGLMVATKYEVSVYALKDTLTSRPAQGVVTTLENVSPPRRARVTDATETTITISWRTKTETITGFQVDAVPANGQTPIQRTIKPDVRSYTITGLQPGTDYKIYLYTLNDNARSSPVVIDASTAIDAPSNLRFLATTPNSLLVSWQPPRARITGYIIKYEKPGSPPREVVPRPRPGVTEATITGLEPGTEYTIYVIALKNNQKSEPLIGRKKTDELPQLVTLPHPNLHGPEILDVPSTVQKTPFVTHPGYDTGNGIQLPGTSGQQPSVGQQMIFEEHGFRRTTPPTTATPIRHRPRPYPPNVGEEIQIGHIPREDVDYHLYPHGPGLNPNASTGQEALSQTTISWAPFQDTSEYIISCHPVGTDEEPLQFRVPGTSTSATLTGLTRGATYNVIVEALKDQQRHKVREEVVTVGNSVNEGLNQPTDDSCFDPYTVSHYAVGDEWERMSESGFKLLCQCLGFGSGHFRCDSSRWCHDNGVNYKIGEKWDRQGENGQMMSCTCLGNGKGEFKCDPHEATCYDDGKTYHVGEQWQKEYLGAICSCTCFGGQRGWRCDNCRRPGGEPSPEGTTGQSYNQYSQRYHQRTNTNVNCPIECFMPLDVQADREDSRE
T2 sequence (P14210 32-728): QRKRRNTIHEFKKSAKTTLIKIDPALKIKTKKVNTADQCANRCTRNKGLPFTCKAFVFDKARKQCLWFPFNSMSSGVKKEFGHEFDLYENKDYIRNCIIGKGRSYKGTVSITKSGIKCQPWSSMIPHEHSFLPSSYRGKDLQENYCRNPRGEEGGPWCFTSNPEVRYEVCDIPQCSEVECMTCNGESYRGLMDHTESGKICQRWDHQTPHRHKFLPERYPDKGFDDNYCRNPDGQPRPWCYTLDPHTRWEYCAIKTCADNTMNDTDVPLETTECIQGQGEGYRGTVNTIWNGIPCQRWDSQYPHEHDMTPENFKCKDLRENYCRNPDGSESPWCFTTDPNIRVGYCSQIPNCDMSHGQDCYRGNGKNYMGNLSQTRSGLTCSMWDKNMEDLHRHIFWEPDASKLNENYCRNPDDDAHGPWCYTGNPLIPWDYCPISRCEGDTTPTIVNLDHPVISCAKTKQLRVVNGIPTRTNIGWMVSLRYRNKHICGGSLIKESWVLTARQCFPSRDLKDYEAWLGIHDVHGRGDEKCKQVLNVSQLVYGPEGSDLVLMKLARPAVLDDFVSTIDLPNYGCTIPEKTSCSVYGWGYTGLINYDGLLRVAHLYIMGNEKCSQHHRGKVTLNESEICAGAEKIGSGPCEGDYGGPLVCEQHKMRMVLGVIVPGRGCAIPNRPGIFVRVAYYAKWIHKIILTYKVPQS

Molecule: CTTHWGFTLC
- inhibition of HWGF-β-gal phage transduction (KS1767 cells): greater than 90%

Molecule: CDCRGDCFC [RGD4C peptide]
- inhibition of RGD-4C-β-gal phage transduction (MDA-MB435 cells): greater than 99%

Molecule: GST-fusion protein containing peptide C: GST-fusion protein containing peptide C (CNVSDKSC; cysteine pairing not given here; also: fused to GST)
- inhibition of anti-peptide C staining [1]: completely inhibited

Molecule: O=c1[nH]cc(F)c(=O)[nH]1 [CARAC peptide, CARAC]
- effect on binding of angiostatin to CD13 (CD13): unaffected

B1: angiostatin: rh-Angiostatin produced by EntreMed, Inc. (protein)
chain: VYLSECKTGNGKNYRGTMSKTKNGITCQKWSSTSPHRPRFSPATHPSEGLEENYCRNPDNDPQGPWCYTTDPEKRYDYCDILECEEECMHCSGENYDGKISKTMSGLECQAWDSQSPHAHGYIPSKFPNKNLKKNYCRNPDRELRPWCFTTDPNKRWELCDIPRCTTPPPSSGPTYQCLKGTGENYRGNVAVTVSGHTCQHWSAQTPHTHNRTPENFPCKNLDENYCRNPDGKRAPWCHTTNSQVRWEYCKIPSCDSSPV
- binding of angiostatin to coated protein (COL IV (collagen IV)): not
- binding of angiostatin to coated protein [2]: binds
- binding of angiostatin to coated protein (FN (fibronectin)): not
- binding of angiostatin to coated protein (VN (vitronectin)): not
- binding of angiostatin to coated protein (CD13 (Aminopeptidase N)): binds
- binding of angiostatin to coated protein (Thrombospondin 1 (TSP-1)): binds
- binding of angiostatin to coated protein (LN (laminin)): not
- staining of tissue sections [3]: vessel-like

B2: phage bearing the sequence CVPELGHEC (peptide)
peptide: CVPELGHEC
modifications: cysteine pairing not given here; also: displayed on phage
- binding result (bovine serum albumin): no binding
